Reference: patent US12448436B2, “Antibody specifically binding to GRP94 or antigen-binding fragment thereof, and uses thereof” (KOOKMIN UNIVERSITY INDUSTRY ACADEMY COOPERATION FOUNDATION, priority 2020, dated 2025)
Changes are numbered by the printed parent chain.

B1: B5: anti-GRP94 human IgG antibody; CDRs SEQ ID NOS: 1 to 6, VH SEQ ID NO: 7, VL SEQ ID NO: 8 (antibody, V domains shown)
VH: EVQLLESGGGLVQPGGSLRLSCAASGFTFSNYYMSWVRQAPGKGLEWVSGIYPNSGSTYYADSVKGRFTISRDNSKNTLYLQMNSLRAEDTAVYYCARDPLHPARFPFDYWGQGTLVTVSS
VL: QSVLTQPPSASGTPGQRVTISCTGSSSNIGNNAVSWYQQLPGTAPKLLIYADSHRPSGVPDRFSGSKSGTSASLAISGLRSEDEADYYCGAWDASLNAYVFGGGTKLTVL
modifications: Amino acid sequence of heavy chain variable of GRP94 B5; Amino acid sequence of light chain variable of GRP94 B5
B2: E5: anti-GRP94 human IgG antibody; CDRs SEQ ID NOS: 9 to 14, VH SEQ ID NO: 15, VL SEQ ID NO: 16 (antibody, V domains shown)
VH: EVQLLESGGGLVQPGGSLRLSCAASGFTFSNYAMSWVRQAPGKGLEWVSGISSSSGSTYYADSVKGRFTTSRDNSKNTLYLQMNSLRAEDTAVYYCARDRHPFSPNWFDYWGQGTLVTVSS
VL: B1 VL with T23S, S26P, N31S, A33T, S35T, G90A, A91S, A94D, A98G
modifications: Amino acid sequence of heavy chain variable of GRP94 E5; Amino acid sequence of light chain variable of GRP94 E5
B3: 3G7: anti-GRP94 human IgG antibody; CDRs SEQ ID NOS: 25 to 30, VH SEQ ID NO: 31, VL SEQ ID NO: 32 (antibody, V domains shown)
VH: EVQLLESGGGLVQPGGSLRLSCAASGFTFSNYSMSWVRQAPGKGLEWVSGIYYGSGNKYYADSVKGRFTISRDNSKNTLYLQMNSLRAEDTAVYYCAKNLASFDYWGQGTLVTVSS
VL: B1 VL with T23S, N31S, A33S, S35N, A51S, D52N, A91T, A94S, N97S, A98G
modifications: Amino acid sequence of heavy chain variable of GRP94 3G7; Amino acid sequence of light chain variable of GRP94 3G7

Each molecule was assayed against T1, rhGRP94 CTD fragment (part 4, Glu 602-Glu 799) (Homo sapiens, UniProt P14625) (assay: Epitope comparison ELISA, rhGRP94 fragment part 4). Details: antibody 1 μg/mL, 100 ng fragment.
T1 construct: Part; 4 (Glu 602-Glu 799) of the human GRP94 gene (Gene ID: 7184); made in house; host or cells: Expi293 expression system (pcDNA 3.4)
Assay type: binding
From the text: To determine which portion (or domain) of the GRP94 protein is bound by the developed antibodies, GRP94 fragments part. 1 and part. 4 were constructed wherein part. 1 was composed of the N-terminal domain (NTD), the Ca^2+ binding domain, the middle domain (MD), and the C-terminal domain (CTD) while part. 4 was derived from part. 1 by cutting off the NTD, the Ca^2+ binding domain, and the MD. In brief, Part. 1 (Asp 22-Glu 799) and Part. 4 (Glu 602-Glu 799) of the human GRP94 gene (Gene ID: 7184) were synthesized and subcloned into pcDNA 3.4 (Invitrogen) mammalian expression vector to finally recombinant DNAs. Using the Expi293 expression system (Invitrogen), the proteins were expressed and purified. The purified antigens part. 1 and part. 4 were analyzed for molecular weight by SDS-PAGE.
Next, ELISA was carried out to examine whether the four antibodies of the present disclosure bind to part 1 and part 4. First, 100 ng of each of the rhGRP94 fragment parts 1 and 4 was fixed to a high binding plate by incubation at 4° C. for 14 hours (overnight binding, 14 hrs). The same amount of BSA was used as a negative control. Then, the plate was blocked with 3% BSA, followed by incubation at 37° C. for 2 hours with 100 μL containing each of the anti-GRP94 antibodies (B5, E5, 2H5, and 3G7) of the present disclosure at a density of 1 μg/mL. After three rounds of washing with PBS-T, the plate was treated at 37° C. for 1 hour with a 5000:1 dilution of anti-Fc-HRP (Catalog #31423 Invitrogen). Color development was induced using 1-step-ultra TMB (Invitrogen) for 10 minutes and then terminated with […] (2N). Absorbance at 450 nm was read.

T1 sequence (P14625 602-799): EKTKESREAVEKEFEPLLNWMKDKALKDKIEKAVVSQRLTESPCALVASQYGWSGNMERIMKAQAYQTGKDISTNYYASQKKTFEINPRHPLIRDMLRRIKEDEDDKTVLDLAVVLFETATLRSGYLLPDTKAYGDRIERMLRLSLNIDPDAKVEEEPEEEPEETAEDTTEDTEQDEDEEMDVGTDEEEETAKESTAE

Row | Molecule | binding to part 4 (Glu 602-Glu 799)
1 | B1 | did not bind
2 | B2 | did not bind
3 | B3 | did not bind
